Data taken from publication PMC2787013, “DNA Specificity Determinants Associate with Distinct Transcription Factor Functions”.

Tests used:
Test in all cases: EMSA; Protein 3-fold dilutions with 1e-11 (M) 32P-dsDNA, 30 min on ice, 6% polyacrylamide gel; binding buffer as in earlier paper (not given); protein dialysis buffer 10 mM Tris pH 7.9, 0.5 mM EDTA, 50 mM KCl, 1 mM DTT, 10% glycerol
Conditions in all cases: protein: recombinant; tags: N-terminal 6xHis (pET28a); label: 32P; (only one strand given)
ETS1 (p51) [1] = molecular target: T1, ETS1 (p51) (human, UniProt P14921 1-441)
T1 sequence: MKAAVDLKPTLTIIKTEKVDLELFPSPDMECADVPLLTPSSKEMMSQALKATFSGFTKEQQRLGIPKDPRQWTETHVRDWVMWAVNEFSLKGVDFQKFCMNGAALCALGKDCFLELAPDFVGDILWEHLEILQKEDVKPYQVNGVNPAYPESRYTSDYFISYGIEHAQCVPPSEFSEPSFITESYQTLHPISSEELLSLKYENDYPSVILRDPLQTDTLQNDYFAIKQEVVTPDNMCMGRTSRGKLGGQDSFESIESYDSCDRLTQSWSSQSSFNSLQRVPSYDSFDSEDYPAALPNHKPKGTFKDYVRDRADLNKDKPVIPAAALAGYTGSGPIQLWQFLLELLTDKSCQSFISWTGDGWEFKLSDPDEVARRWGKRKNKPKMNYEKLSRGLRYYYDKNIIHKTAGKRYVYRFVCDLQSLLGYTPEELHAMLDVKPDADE

ELF1 [2] = molecular target: T2, ELF1 (human, UniProt P32519 1-619)
ETS1 (p51) [3] = molecular target: T1, ETS1 (p51); remark: listed apart in the source
ELF1 [4] = molecular target: T2, ELF1; remark: listed apart in the source

T2 sequence (P32519 whole entry): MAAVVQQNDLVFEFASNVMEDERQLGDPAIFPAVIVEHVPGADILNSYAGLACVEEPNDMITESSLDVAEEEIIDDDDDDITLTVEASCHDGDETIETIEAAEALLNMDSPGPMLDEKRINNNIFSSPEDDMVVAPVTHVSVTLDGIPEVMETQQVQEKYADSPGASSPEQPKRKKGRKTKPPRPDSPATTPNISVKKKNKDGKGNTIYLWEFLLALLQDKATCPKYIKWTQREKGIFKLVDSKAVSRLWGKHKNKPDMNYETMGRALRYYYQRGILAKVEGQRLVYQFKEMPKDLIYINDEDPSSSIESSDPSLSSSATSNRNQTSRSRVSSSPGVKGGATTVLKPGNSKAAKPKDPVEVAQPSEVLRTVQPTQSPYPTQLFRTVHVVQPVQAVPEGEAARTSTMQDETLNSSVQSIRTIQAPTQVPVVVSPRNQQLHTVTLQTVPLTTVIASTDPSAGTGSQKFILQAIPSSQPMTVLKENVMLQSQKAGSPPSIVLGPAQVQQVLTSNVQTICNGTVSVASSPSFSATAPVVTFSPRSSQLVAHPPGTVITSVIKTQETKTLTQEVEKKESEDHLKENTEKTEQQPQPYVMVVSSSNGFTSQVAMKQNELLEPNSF

B1: ETS consensus CCGGAAGT (dsDNA)
DNA 1: GGCCAAGCCGGAAGTGTGTGGTAAACACTTT
DNA 2: AAAGTGTTTACCACACACTTCCGGCTTGGCC
Binder B1 has a Kd (ETS1 (p51) [1]) of 1.7 nM and a Kd (ELF1 [2]) of 0.17 nM.

B2: A to T variant CCGGATGT (dsDNA)
DNA 1: GGCCAAGCCGGATGTGTGTGGTAAACACTTT
DNA 2: AAAGTGTTTACCACACACATCCGGCTTGGCC
B2 was tested, and the binding signal (ETS1 (p51) [3]) was 1 fold decrease in affinity vs N1 and the binding signal (ELF1 [4]) was 3.6 fold decrease in affinity vs N1.

B3: double variant CAGGATGT (dsDNA)
DNA 1: GGCCAAGCAGGATGTGTGTGGTAAACACTTT
DNA 2: AAAGTGTTTACCACACACATCCTGCTTGGCC
With B3 the binding signal (ETS1 (p51) [3]) was 2.4 fold decrease in affinity vs N1 and the binding signal (ELF1 [4]) was 18.3 fold decrease in affinity vs N1.

B4: C to A variant CAGGAAGT (dsDNA)
DNA 1: GGCCAAGCAGGAAGTGTGTGGTAAACACTTT
DNA 2: AAAGTGTTTACCACACACTTCCTGCTTGGCC
For B4, the binding signal (ETS1 (p51) [3]) was 1.5 fold decrease in affinity vs N1 and the binding signal (ELF1 [4]) was 1.9 fold decrease in affinity vs N1.
